From paper PMC4479991

Key:
[1] = molecular target: T1, zif268 (EGR1 DNA-binding domain), cleaved (UniProt P08046 333-421); test: EMSA; EMSA: binding on ice, at least 1 h, native PAGE 8% (oligos) or 3.5% (1 kb), salt up to 1 M KCl; nanopore: 1 M KCl, 30 min incubation at 200:1 protein:DNA; pH no
[2] = molecular target: T2, zif268_GST (uncleaved fusion) (UniProt P08046 333-421); test: as above
[3] = molecular target: T1, zif268 (EGR1 DNA-binding domain), …; test: EMSA; 1:300 DNA:protein; EMSA: binding on ice, at least 1 h, native PAGE 8% (oligos) or 3.5% (1 kb), salt up to 1 M KCl; nanopore: 1 M KCl, 30 min incubation at 200:1 protein:DNA; pH no
[4] = molecular target: T2, zif268_GST (uncleaved fusion); test: as above
[5] = molecular target: T1, zif268 (EGR1 DNA-binding domain), …; test: EMSA; up to 1 M KCl; binding saturates at about 1:200 DNA:protein; EMSA: binding on ice, at least 1 h, native PAGE 8% (oligos) or 3.5% (1 kb), salt up to 1 M KCl; nanopore: 1 M KCl, 30 min incubation at 200:1 protein:DNA; pH no

B1: (-) 50 bp oligo, no site (dsDNA)
DNA 1: CAGTATGCAAATGACTGCAGTATGCAAATGACC
DNA 2: TCGAGGTCATTTGCATACTGCAGTCATTTGCATACTGGTAC
**Q.** Does B1 bind [1]?
**A.** Result: no binding

**Q.** Does B1 bind [2]?
**A.** Result: no binding

B2: (+) 50 bp oligo, 2 sites separated by 6 bp (dsDNA)
DNA 1: CAGGCGTGGGCGCTGCAGGCGTGGGCGCC
DNA 2: TCGAGGCGCCCACGCCTGCAGCGCCCACGCCTGGTAC
**Q.** Does B2 bind [3]?
**A.** Result: binds

**Q.** Does B2 bind [4]?
**A.** Result: binds

B3: Atto-647 50 bp oligo, 1 site (dsDNA)
DNA 1: AGTCTGTTACGCTGGCCTCTGCGTGGGCGAATTCGCATGCGCAACCCCAC
DNA 2: GTGGGGTTGCGCATGCGAATTCGCCCACGCAGAGGCCAGCGTAACAGACT
**Q.** Does B3 bind [5]?
**A.** Result: binds
